Test results published in US20110165265A1, “TRAIL VARIANTS FOR TREATING CANCER” (FUNDACIÓ GENÒMICA (CRG), priority 2007, published 2011).

Assays:
[1] = 125I-TRAIL biodistribution in tumor-bearing mice; type: in vivo
Method: Radioiodination of TRAIL was performed with a TRAIL solution of 1 mg/ml in a pH 7.4 TRIS buffer, containing 100 μM zinc sulphate and 10% glycerol. 45 μg TRAIL and 50 μg chloramine T (Merck, Amsterdam, The Netherlands) were allowed to react with 70 MBq ^125I-NaI in 0.05 M NaOH (pH 9.0, GE Healthcare, Eindhoven, The Netherlands) during 3 min at pH 8.0. The labeling reaction was terminated with sodium metabisulfite (Acros Organics, Geel, Belgium). Non-bound ^1251 was removed by gel filtration chromatography. The PD-10 column (Sephadex™ G-25M, Amersham Biosciences AB, Uppsala, Sweden) was eluted with TRIS buffer, containing 100 μM zinc sulphate, 10% glycerol and 0.5% human serum albumin. Nude mice with IP A2780-Luc xenografts were prepared, as described above.
The in vivo biodistribution study was conducted in 50 mice after establishment of A2780-Luc IP xenografts. ^125I-TRAIL (0.15 ml; 150 kBq, 0.5 μg) was administered IV through retro-orbital injection in 25 mice, and IP in 25 mice. At five time points after injection (t=15, 30, 60, 90 and 360 min) groups of 5 mice were sacrificed and organs and tissues were excised, rinsed for residual blood and weighed. Tumor tissue was additionally fixed in 10% buffered formalin for histological assessment. Samples were counted for radioactivity in a calibrated well-type LKB-1282-CompuGamma counter. Tissue activity was expressed as percentage of the injected dose/g tissue (% ID/g). Tumor-to- blood and tumor-to-muscle ratios were also calculated. All data were corrected for physical decay and compared with a known standard sample. Pharmacokinetic parameters were derived using the KINFIT module of the MW/PHARM computer program package (version 3.50, MediWare, Groningen, The Netherlands). Clearance rates of ^125I-TRAIL from the circulation were calculated using non-linear regression analysis.

p53 = p53 protein expression in cervical cancer cell lines; type: cell-based
Method: All three cervical cancer cell lines were treated with increasing concentration of Bortezomib to assess expression of p53 protein.

TRAIL R1, R2, R3 and R4 = experiment: TRAIL receptor membrane expression by flow cytometry; type: cell-based
Method: Analysis of TRAIL-receptor membrane expression was performed by FACS analysis as described previously^35. For death receptor expression after cisplatin exposure, cells were exposed for 4 h, washed with PBS and incubated for 20 h in regular culture medium, after which FACS analysis was performed. Cells were subsequently washed twice with cold PBS containing 2% FCS and 0.1% sodium azide and incubated with phycoerythrin (PE)-conjugated mouse monoclonal antibodies against DR4, DR5, DcR1 and DcR2. Mouse PE-labeled IgG1 and IgG2B were used as isotype controls. All PE-labeled antibodies were purchased from R&D systems (Oxon, UK). Membrane receptor expression was analyzed with Winlist and Winlist 32 software (Verity Software House, Inc., Topsham, Me.) and is shown as mean fluorescent intensity (MFI) of all analyzed cells.
In order to determine the cell surface expression of each of the TRAIL receptors on A2780 carcinoma cells, cells were washed twice in PBS containing 1% BSA and then incubated with monoclonal antibodies to DR4, DR5, DcR1 or DcR2 (Alexis) for 40 min. After two wash steps with PBS/BSA, anti-mouse IgG-FITC (Sigma) secondary antibody was added for 30 min. All incubations were carried out on ice. Negative controls contained isotype control antibody. Cells were analyzed by a FacsCalibur flow cytometer.

Colo205 tumors = Colo205 tumors in athymic nude mice; type: in vivo; conditions: 40 and 200 mg/kg, 2×5 days
A2780-Luc xenografts = experiment: IP A2780-Luc xenografts, bioluminescence imaging
Method: Visualization of response to TRAIL, TRAIL-DR5, cisplatin and to the combination of either ligand with cisplatin by means of bioluminescence imaging. Nude mice were inoculated IP with 2×10^6 A2780-Luc cells. After 5 days treatment was initiated; cisplatin (4 mg/kg IP) or vehicle at day 5 and 12, TRAIL, TRAIL-DR5 (5 mg/kg IP) or vehicle at day 5-10 and 12-16, or a combination of TRAIL or TRAIL-DR5 with cisplatin.
Female nude mice (Hsd:Athymic Nude-nu) were obtained from Harlan Nederland (Horst, The Netherlands) at 6-8 weeks of age (˜21 g). Inoculation was performed after 10 days of acclimatization.
Imaging was conducted with the IVIS 100 series (Xenogen Corporation Alameda, Calif.), composed of a cooled charge-coupled device camera connected to a light tight black chamber. Before in vivo imaging animals were anesthetized with 4% isoflurane and injected IP with D-luciferin (150 mg/kg, Xenogen) reconstituted in sterile PBS. Mice were placed in prone position on a warmed stage (37° C.) in the imaging chamber, and grayscale reference images were obtained under dim illumination. Pseudocolor images representing bioluminescent intensity were acquired with Livinglmage software (version 2.50, Xenogen) 10 and 15 min after D-luciferin injection in complete darkness. These images were superimposed on the grayscale images for analysis with Igor Pro software (version 4.09, WaveMetrics, Lake Oswego, Oreg.). All bioluminescence imaging (BLI) data are depicted in radiance units (photons/sec/cm^2/sr) enabling absolute comparisons between bioluminescent images and represent final data obtained after subtraction of the background signal.

A2780 cells = experiment: Microculture tetrazolium cytotoxicity assay in A2780; type: cell-based, human; conditions: A2780, 4 h pre-incubation; read-out: inhibitory concentration 20% (IC20)
Method: The microculture tetrazolium assay, performed as described earlier^36, was used to measure cytotoxicity. […] In cell viability assays assessing combination treatment with cisplatin, the cells were pre-incubated for 4 h (h) with 2.5 μM cisplatin (inhibitory concentration 20%-IC20), before addition of 0-25 ng/ml TRAIL or TRAIL-DR5.

[2] = Colo205, 5 mM Aspirin or 10 μM 5-Flurouracil, 24 h
[3] = Lovo, 2.5 mM Aspirin or 10 μM 5-Flurouracil, 24 h
[4] = SW948, 2.5 mM Aspirin or 10 μM 5-Flurouracil, 24 h

## 125I-TRAIL: radioiodinated TRAIL
[1]; 15 min after injection
  cleaved caspase-3 staining in tumor tissue: almost no cleaved caspase-3 was detected
[1]; 360 min after injection
  cleaved caspase-3 staining in tumor tissue: increased cleaved caspase-3 staining
[1]; IP, 15 min
  blood activity: 25.30±5.04 % ID/g
  kidney uptake: 19.83±1.38 % ID/g
  tumor activity: 11.31±1.51
  tumor to blood ratio: 0.48±0.03
[1]; IP, 30 min
  blood activity: 15.33±3.78 % ID/g
  kidney uptake: 21.45±1.90 % ID/g
[1]; IP, 60 min
  tumor activity: 12.91±3.29
  tumor to blood ratio: 0.55±0.06
[1]; IP, 90 min
  blood activity: 23.74±6.85 % ID/g
  kidney uptake: 17.87±1.28 % ID/g
[1]; IP, 360 min
  blood activity: 8.26±1.74 % ID/g
  kidney uptake: 4.45±0.31 % ID/g
[1]; IV, 15 min
  blood activity: 43.29±11.04 % ID/g
  kidney uptake: 199.2±40.69 % ID/g
  tumor to blood ratio: 0.13±0.02
[1]; IV, 30 min
  blood activity: 30.51±12.40 % ID/g
  kidney uptake: 126.6±49.68 % ID/g
[1]; IV, 60 min
  tumor to blood ratio: 0.38±0.04
[1]; IV, 60 min (maximum)
  tumor activity: 6.85±1.29
[1]; IV, 90 min
  blood activity: 7.52±1.22 % ID/g
  kidney uptake: 12.73±2.47 % ID/g
[1]; IV, 360 min
  blood activity: 2.63±0.56 % ID/g
  kidney uptake: 2.06±0.56 % ID/g

## CC(C)C[C@H](NC(=O)[C@H](Cc1ccccc1)NC(=O)c1cnccn1)B(O)O [Bortezomib]
p53; Caski
  induction of p53 protein: can be seen at concentrations of 1 nM with largest induction seen at 5 and 10 nM
p53; HELA
  induction of p53 protein: seen also at 5 and 10 nM, though relatively smaller
p53; SiHa
  induction of p53 protein: can be seen at 5 and 10 nM
TRAIL R1, R2, R3 and R4; Caski, 5 nM, 24 h
  TRAIL receptor expression: increased receptor expression of TRAIL R2 and slight increase of TRAIL R3
TRAIL R1, R2, R3 and R4; Hela, 10 nM, 24 h
  TRAIL receptor expression: increases receptor expression of all TRAIL receptors
TRAIL R1, R2, R3 and R4; SIHA, 10 nM, 24 h
  TRAIL receptor expression: increases receptor expression of all TRAIL receptors

## CC(=O)Oc1ccccc1C(=O)O [aspirin]
TRAIL R1, R2, R3 and R4; [2]
  TRAIL receptor expression: induction TRAIL R2, R3 and R4 receptor expression
TRAIL R1, R2, R3 and R4; [3]
  TRAIL receptor expression: induction TRAIL R4 and to a lesser extent TRAIL R2 receptor expression
TRAIL R1, R2, R3 and R4; [4]
  TRAIL receptor expression: induction TRAIL-R2 expression only
Colo205 tumors
  effect on tumor growth, aspirin alone: no difference in effect
  side effects: no side effects were found

## N.N.[Cl][Pt][Cl] [cisplatin, cis-diamminedichloroplatinum (II), reference compound]
A2780-Luc xenografts; day 16, IP treatment
  mean signal reduction as to vehicle treated mice: 72.3%
A2780-Luc xenografts; day 16, mean±SEM
  light emission (bioluminescent signal): 1.3×10^8±2.4×10^7 radiance units
A2780-Luc xenografts; surrogate endpoint signal ≧3.1×10^8
  median survival: 28 days
TRAIL R1, R2, R3 and R4; A2780
  TRAIL receptor expression: dose dependent upregulation of DR5 and DcR2 expression
A2780 cells
  IC20: 2.5 µM

## O=c1[nH]cc(F)c(=O)[nH]1 [5-Flurouracil]
TRAIL R1, R2, R3 and R4; [2]
  TRAIL receptor expression: induction of all TRAIL receptors
TRAIL R1, R2, R3 and R4; [3]
  TRAIL receptor expression: induction of TRAIL R2, R3 and R4 receptors
TRAIL R1, R2, R3 and R4; [4]
  TRAIL receptor expression: did not lead to any induction of the TRAIL receptors
